Publication PMC4089491, “BuD, a helix–loop–helix DNA-binding domain for genome modification”

Tests used:
[1] = molecular target: BurrH Variant3 (RAG1) (Burkholderia rhizoxinica) (UniProt E5AV36); experiment: ITC; details: FA and ITC: 25 mM HEPES pH 8, 150 mM NaCl, 0.2 mM TCEP, 298 K, SPR: HBS-EP+ (10 mM HEPES pH 7.4, 150 mM NaCl, 3 mM EDTA, 0.05% P20)
[2] = molecular target: Variant3 ND (Burkholderia rhizoxinica) (UniProt E5AV36); experiment: ITC; details: FA and ITC: 25 mM HEPES pH 8, 150 mM NaCl, 0.2 mM TCEP, 298 K, SPR: HBS-EP+ (10 mM HEPES pH 7.4, 150 mM NaCl, 3 mM EDTA, 0.05% P20)
[3] = molecular target: Variant1 ND (Burkholderia rhizoxinica) (UniProt E5AV36); experiment: ITC; details: FA and ITC: 25 mM HEPES pH 8, 150 mM NaCl, 0.2 mM TCEP, 298 K, SPR: HBS-EP+ (10 mM HEPES pH 7.4, 150 mM NaCl, 3 mM EDTA, 0.05% P20)
[4] = molecular target: BurrH Variant1 (CAPNS1) (Burkholderia rhizoxinica) (UniProt E5AV36); experiment: ITC; details: FA and ITC: 25 mM HEPES pH 8, 150 mM NaCl, 0.2 mM TCEP, 298 K, SPR: HBS-EP+ (10 mM HEPES pH 7.4, 150 mM NaCl, 3 mM EDTA, 0.05% P20)
[5] = molecular target: Variant4 ND (Burkholderia rhizoxinica) (UniProt E5AV36); experiment: ITC; details: FA and ITC: 25 mM HEPES pH 8, 150 mM NaCl, 0.2 mM TCEP, 298 K, SPR: HBS-EP+ (10 mM HEPES pH 7.4, 150 mM NaCl, 3 mM EDTA, 0.05% P20)
[6] = molecular target: BurrH Variant4 (RAG1) (Burkholderia rhizoxinica) (UniProt E5AV36); experiment: ITC; details: FA and ITC: 25 mM HEPES pH 8, 150 mM NaCl, 0.2 mM TCEP, 298 K, SPR: HBS-EP+ (10 mM HEPES pH 7.4, 150 mM NaCl, 3 mM EDTA, 0.05% P20)
AvrBs3 TALE = experiment: SPR; details: FA and ITC: 25 mM HEPES pH 8, 150 mM NaCl, 0.2 mM TCEP, 298 K, SPR: HBS-EP+ (10 mM HEPES pH 7.4, 150 mM NaCl, 3 mM EDTA, 0.05% P20)
[7] = molecular target: Variant2 ND (Burkholderia rhizoxinica) (UniProt E5AV36); experiment: ITC; details: FA and ITC: 25 mM HEPES pH 8, 150 mM NaCl, 0.2 mM TCEP, 298 K, SPR: HBS-EP+ (10 mM HEPES pH 7.4, 150 mM NaCl, 3 mM EDTA, 0.05% P20)
[8] = molecular target: BurrH Variant2 (CAPNS1) (Burkholderia rhizoxinica) (UniProt E5AV36); experiment: ITC; details: FA and ITC: 25 mM HEPES pH 8, 150 mM NaCl, 0.2 mM TCEP, 298 K, SPR: HBS-EP+ (10 mM HEPES pH 7.4, 150 mM NaCl, 3 mM EDTA, 0.05% P20)
BurrH [9] = molecular target: T1, BurrH (Burkholderia rhizoxinica, UniProt E5AV36 1-771); experiment: SPR; details: FA and ITC: 25 mM HEPES pH 8, 150 mM NaCl, 0.2 mM TCEP, 298 K, SPR: HBS-EP+ (10 mM HEPES pH 7.4, 150 mM NaCl, 3 mM EDTA, 0.05% P20)
T1 sequence: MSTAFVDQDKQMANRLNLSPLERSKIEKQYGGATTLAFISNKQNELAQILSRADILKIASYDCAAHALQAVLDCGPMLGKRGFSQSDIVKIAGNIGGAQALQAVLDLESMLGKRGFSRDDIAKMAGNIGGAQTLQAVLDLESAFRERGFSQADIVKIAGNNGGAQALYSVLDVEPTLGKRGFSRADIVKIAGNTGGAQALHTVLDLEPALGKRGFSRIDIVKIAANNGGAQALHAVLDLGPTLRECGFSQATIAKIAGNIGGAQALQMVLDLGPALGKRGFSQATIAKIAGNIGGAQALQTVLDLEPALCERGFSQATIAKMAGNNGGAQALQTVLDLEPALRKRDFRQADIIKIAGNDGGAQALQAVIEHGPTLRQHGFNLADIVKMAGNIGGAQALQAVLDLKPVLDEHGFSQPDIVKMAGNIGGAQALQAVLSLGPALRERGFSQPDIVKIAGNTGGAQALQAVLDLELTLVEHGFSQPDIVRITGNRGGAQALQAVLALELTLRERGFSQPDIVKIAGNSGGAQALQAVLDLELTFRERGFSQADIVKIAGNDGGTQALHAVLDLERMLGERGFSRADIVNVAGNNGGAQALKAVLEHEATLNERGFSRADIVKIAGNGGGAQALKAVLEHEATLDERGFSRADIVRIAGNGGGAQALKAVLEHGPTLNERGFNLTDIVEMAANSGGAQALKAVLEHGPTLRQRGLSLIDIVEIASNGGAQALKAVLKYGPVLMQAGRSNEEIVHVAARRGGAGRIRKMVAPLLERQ

BurrH [10] = molecular target: T1, BurrH; experiment: fluorescence anisotropy; FA and ITC: 25 mM HEPES pH 8, 150 mM NaCl, 0.2 mM TCEP, 298 K; SPR: HBS-EP+ (10 mM HEPES pH 7.4, 150 mM NaCl, 3 mM EDTA, 0.05% P20), 298 K; details: protein: recombinant; label: 5' 6-FAM
BurrH [11] = molecular target: T1, BurrH; experiment: ITC; FA and ITC: 25 mM HEPES pH 8, 150 mM NaCl, 0.2 mM TCEP, 298 K; SPR: HBS-EP+ (10 mM HEPES pH 7.4, 150 mM NaCl, 3 mM EDTA, 0.05% P20), 298 K; details: protein: recombinant

“TTCAGTGTTTATGGTTACTTATA (double strand) [V3 target]” showed a Kd [1] of 30 nM and a Kd [2] of 26 nM.

“TTGGCTCTGTGGGCTCGGGTCTA (double strand) [V1 target]” gave a Kd [3] of 29 nM and a Kd [4] of 29 nM.

Work on “TTGTATATATTTAAGCACTTATA (double strand) [V4 target]” yielded a Kd [5] of 14 nM and a Kd [6] of 12 nM.

AvrBs3 target, SPR duplex showed a Kd (AvrBs3 TALE) of 0.22 nM.

For “TTTTGTCCGGGAACCCAGAGCTA (double strand) [V2 target]”, the Kd [7] was 215 nM and the Kd [8] was 149 nM.

Molecule BurrH target, SPR duplex has a Kd (AvrBs3 TALE) of 1000 nM and a Kd (BurrH [9]) of 0.36 nM.

B1: FA duplex 11 (G4 G12 G13) (dsDNA)
DNA 1: TTAAGGGAAGCAAGGACGTTATA
DNA 2: TATAACGTCCTTGCTTCCCTTAA
B1 was tested, and the Kd (BurrH [10]) was 90 ± 12 nM.

B2: FA duplex 4 (T4 T12 A13) (dsDNA)
DNA 1: TTAAGTGAAGCAATAACGTTATA
DNA 2: TATAACGTTATTGCTTCACTTAA
Work on B2 yielded a Kd (BurrH [10]) of 61 ± 8 nM.

B3: BurrH target A0 (dsDNA)
DNA 1: TAAAGAGAAGCAAATACGTTATA
DNA 2: TATAACGTATTTGCTTCTCTTTA
B3 gave a Kd (BurrH [11]) of 15 ± 2.8 nM.

B4: FA duplex 12 (T4 T12 G13) (dsDNA)
DNA 1: TTAAGTGAAGCAATGACGTTATA
DNA 2: TATAACGTCATTGCTTCACTTAA
Work on B4 yielded a Kd (BurrH [10]) of 63 ± 5 nM.

B5: FA duplex 10 (C4 C12 G13) (dsDNA)
DNA 1: TTAAGCGAAGCAACGACGTTATA
DNA 2: TATAACGTCGTTGCTTCGCTTAA
With B5 the Kd (BurrH [10]) was 49 ± 10 nM.

B6: BurrH target C0 (dsDNA)
DNA 1: TCAAGAGAAGCAAATACGTTATA
DNA 2: TATAACGTATTTGCTTCTCTTGA
With B6 the Kd (BurrH [11]) was 15 ± 3.2 nM.

B7: FA duplex 3 (G4 G12 A13) (dsDNA)
DNA 1: TTAAGGGAAGCAAGAACGTTATA
DNA 2: TATAACGTTCTTGCTTCCCTTAA
Work on B7 yielded a Kd (BurrH [10]) of 81 ± 12 nM.

B8: FA duplex 14 (C4 C12 C13) (dsDNA)
DNA 1: TTAAGCGAAGCAACCACGTTATA
DNA 2: TATAACGTGGTTGCTTCGCTTAA
Molecule B8 has a Kd (BurrH [10]) of 47 ± 5 nM.

B9: FA duplex 15 (G4 G12 C13) (dsDNA)
DNA 1: TTAAGGGAAGCAAGCACGTTATA
DNA 2: TATAACGTGCTTGCTTCCCTTAA
In the case of B9, the Kd (BurrH [10]) is reported as 59 ± 6 nM.

B10: FA duplex 5 (A4 A12 T13) (dsDNA)
DNA 1: TTAAGAGAAGCAAATACGTTATA
DNA 2: TATAACGTATTTGCTTCTCTTAA
B10 gave a Kd (BurrH [10]) of 32 ± 7 nM.

B11: BurrH target G0 (dsDNA)
DNA 1: TGAAGAGAAGCAAATACGTTATA
DNA 2: TATAACGTATTTGCTTCTCTTCA
Molecule B11 has a Kd (BurrH [11]) of 24 ± 6.3 nM.

B12: BurrH RNA target/DNA hybrid (DNA:RNA)
RNA: UUAAGAGAAGCAAAUACGUUAUA
DNA: TATAACGTATTTGCAACTCTTAA
Work on B12 yielded a Kd (BurrH [11]; blunt) of 1890 ± 438 nM.

B13: BurrH DNA target/RNA hybrid (DNA:RNA)
DNA: TTAAGAGAAGCAAATACGTTATA
RNA: UAUAACGUAUUUGCAACUCUUAA
B13 gave a Kd (BurrH [11]; blunt) of 56 ± 6.5 nM.

B14: FA duplex 1 (A4 A12 A13) (dsDNA)
DNA 1: TTAAGAGAAGCAAAAACGTTATA
DNA 2: TATAACGTTTTTGCTTCTCTTAA
With B14 the Kd (BurrH [10]) was 40 ± 3 nM.

B15: FA duplex 6 (C4 C12 T13) (dsDNA)
DNA 1: TTAAGCGAAGCAACTACGTTATA
DNA 2: TATAACGTAGTTGCTTCGCTTAA
With B15 the Kd (BurrH [10]) was 43 ± 10 nM.

B16: BurrH DNA target duplex (dsDNA)
DNA 1: TTAAGAGAAGCAAATACGTTATA
DNA 2: TATAACGTATTTGCTTCTCTTAA
For B16, the Kd (BurrH [11]) was 25 ± 4.3 nM.

B17: FA duplex 13 (A4 A12 C13) (dsDNA)
DNA 1: TTAAGAGAAGCAAACACGTTATA
DNA 2: TATAACGTGTTTGCTTCTCTTAA
In the case of B17, the Kd (BurrH [10]) is reported as 39 ± 10 nM.

B18: FA duplex 2 (C4 C12 A13) (dsDNA)
DNA 1: TTAAGCGAAGCAACAACGTTATA
DNA 2: TATAACGTTGTTGCTTCGCTTAA
In the case of B18, the Kd (BurrH [10]) is reported as 44 ± 9 nM.

B19: FA duplex 9 (A4 A12 G13) (dsDNA)
DNA 1: TTAAGAGAAGCAAAGACGTTATA
DNA 2: TATAACGTCTTTGCTTCTCTTAA
With B19 the Kd (BurrH [10]) was 35 ± 6 nM.

B20: FA duplex 7 (G4 G12 T13) (dsDNA)
DNA 1: TTAAGGGAAGCAAGTACGTTATA
DNA 2: TATAACGTACTTGCTTCCCTTAA
Work on B20 yielded a Kd (BurrH [10]) of 42 ± 7 nM.
